The record followed here is publication PMC5339304.

In this test the target is DC-specific intercellular adhesion molecule 3-grabbing non-integrin (DC-SIGN) (human) (UniProt Q9NNX6). Nature of the test: atomic force spectroscopy (AFM force spectroscopy); MUB covalently attached to the AFM tip (MAL-PEG-SCM linker), DC-SIGN, SIGN-R1 or Dectin-2 covalently attached to glass slides (GMBS); PBS; force-volume mode, 2 um/s, maximum load force 300 pN; repeated after addition of 0.05 mg/ml anti-Mub antibody.

In turn, “mucus-binding protein MUB of Lactobacillus reuteri ATCC 53608 (natural protein)” yielded a modal value of binding strength of 684 pN.
